From IntAct's records for PubMed 12629052 come the findings set out here.

The test addresses fkb1a_human FKBP1A (UniProt P62942).

Chain of fkb1a_human FKBP1A (P62942 whole entry): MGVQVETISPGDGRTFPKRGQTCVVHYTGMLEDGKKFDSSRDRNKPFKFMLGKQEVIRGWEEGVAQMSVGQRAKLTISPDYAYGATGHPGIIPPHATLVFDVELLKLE

In the case of “Ryanodine receptor 1 (Oryctolagus cuniculus (Rabbit)), P11716 S2843D”, the “effect of a mutation on the interaction” value is “disrupting interaction”.
